According to patent publication US20180095098A1:

Target: Human β2-adrenergic receptor, amino-terminal FLAG epitope tag, truncated after residue 365, biotinylated, bound to the agonist BI-167107 (human) (UniProt P07550)
Assay: SPR (Biacore T100, 25 °C), biotinylated BI-167107-bound receptor on SA chip, single-cycle kinetics

“Nb6B9, high affinity variant of Nb80 (VHH)” was tested, and the fold slowing of dissociation against wild-type Nb80 was > 10 fold.
